Measured values reported in PMC6408234.

Legend:
[1] = target: 9C-HLA-A2 (NY-ESO-1 157-165 peptide … on HLA-A*02:01 with human β2m); assay: biomembrane force probe
[2] = target: C-C-locked R4-MHC (disulfide-bond-locked MHC mutant) (mouse | human); assay: biomembrane force probe

Substance | peak bond lifetime (at ~10 pN force) [1] [s] | fold reduction of the optimal bond lifetime against R4-MHC [2] [fold]
1G4 TCR | 1 | 
2C TCR (wild type) |  | 2
